These results are taken from patent publication US20260133210A1, “CELL-FREE BIOSENSORS FOR IN VITRO DETECTION OF TARGET MOLECULES” (priority 2022, published 2026).

Numbering of substitutions follows the chain as printed. Names and notes keep the numbering of the source.

Series [1] concerns cell-free protein synthesis. Put plainly: Titration of analyte against an unregulated reporter plasmid (pT7-sfGFP) in a cell-free reaction. Type of series: biochemical, E. coli. Conditions: 100 μM CuSO4. The protocol: A series of tuning experiments are next used to optimize the sensor. First, the optimal concentration of the aTF (CueR) is found for the non-cascaded sensor (e.g., pCue-sfGFP) through a series of ratiometric titrations between the aTF-enriched extract and the blank extract in both the presence and absence of analyte (see e.g., the data in FIG. 7). This experiment is an isothermal cell-free gene expression reaction held at 30° C. in a plate reader for […] using an established set of physiochemical conditions to maximize protein production in general. It may also be necessary to determine the concentration of analyte that saturates the cell-free sensor without inhibiting transcription and translation in vitro, which can be done with a simple titration of analyte against an unregulated reporter plasmid (e.g., pT7-sfGFP).

Another series relates to PbCl2. As to the kind of experiment: Hand-validation of top PbrR variants from the SSM library screen. Type of series: biochemical, E. coli. Particulars: top 10 variants with the highest fold change from each lead concentration. The source says:
The top 10 variants with the highest fold change from each lead concentration were hand-validated to validate the results from the SSM library screen.

The subject of the next series is lead. Put plainly: Enriched extract PbrR lead sensors. The format is biochemical, E. coli. Particulars: FIG. 40 and 41. The protocol:
Enriched extract is made by pre-expressing the transcription factor in the E. coli strain before lysing to generate the extract. […] It was also determined that a catechol reporter can be used for improved sensor output. This works by having the PbrR transcription factor bind to PbrO and drive expression of an enzyme that catalyzes a colorimetric change in catechol.

As to mf-Lon, the “decay of sfGFP signal (protein degradation) on mixing extracts” value in the series with pdt-tagged sfGFP was “Increasing the concentration of mf-Lon and supplying additional ATP (a co-substrate for the reaction) results in some signal decay”. On to `O=S(=O)([O-])[O-].[Cu+2]` [CuSO4], for which the “effect on cell-free protein synthesis” value in series [1] is recorded as “shuts down cell-free protein synthesis”.

B1: M60F (protein)
chain: MNIQIGELAKRTACPVVTIRFYEQEGLLPPPGRSRGNFRLYGEEHVERLQFIRHCRSLDFPLSDVRTLLSYRKRPDQDCGEVNMLLDEHIRQVESRIGALLELKHHLVELREACSGARPAQSCGILQGLSDCVCDTRGTTAHPSD
modifications: Cupriavidus metallidurans
For B1, the “behaviour in the hand-validated SSM results” value with PbCl2 was “bind the promoter regardless of whether or not the ligand (lead) is present”.

B2: M60L (protein)
chain: B1 chain with F60L
modifications: Cupriavidus metallidurans
As to B2, the “behaviour in the hand-validated SSM results” value with PbCl2 was “promising”.

B3: G128I, D64K, M60L, and P61N: quadruple variant of PbrR (SEQ ID NO: 47) (protein)
chain: B1 chain with F60L, P61N, D64K, G128I
modifications: Cupriavidus metallidurans
For B3, the “lead detection in enriched extract” value in the series with lead is listed as “can detect lead at the limit of detection”.
